Our source for the protein production values is a protein production outcome set (Wang et al. 2014).

The series is described as follows: label from the status in PepcDB records.
On to “MSQLEIRDLWASIDGETILKGVNLVVPKGEVHALMGPNGAGKSTLGKILAGDPEYTVERGEILLDGENILELSPDERARKGLFLAFQYPVEVPGVTIANFLRLALQAKLGREVGVAEFWTKVKKALELLDWDESYLSRYLNEGFSGGEKKRNEILQLLVLEPTYAVLDETDSGLDIDALKVVARGVNAMRGPNFGALVITHYQRILNYIQPDKVHVMMDGRVVATGGPELALELEAKGYEWLKEKVKEGA”, for which the protein production result is given as “not failed”.

“MSQLLKLKSQYDDECTVTRHYEGKGRNAGRLGAVGCKNRHGEFRIGSGFKDKDRDNPPKIGTLITYRYRGFTRKGTPKFATFVRVRTLEHHHHHH”: the protein production entry is listed as “failed”.

On to “MSQLNSVWVFSDNPERYAELFGGAQQWGQQVYAIVQNTEQAQAVMPYGPKCIYVLEQNDALQRTENYAESIAALLKDKHPAMLLLAATKRGKALAARLSVQLNAALVNDATAVDIVDGHICAEHRMYGGLAFAQEKINSPLAIITLAPGVQEPCTRDISHQCPTETVPYVAPRHEILCRERRAKAASSVDLSKAKRVVGVGRGLAAQDDLKMVHELAAVLNAEVGCSRPIAEGENWMERERYIGVSGVLLKSDLYLTLGISGQIQHMVGGNGAKVIVAINKDKNAPIFNYADYGLVGDIYKVVPALISQLNR”, for which the protein production result is “failed”.

For the sequence “MSQPPLLSGPGGRLLGAALLIGLLAGCGSVSTGNAGSGTVGTSTTSRADVMTFQPSSLPVSYVGETYNVQVGVTGGVGPYGYRLTAGTLPPGLKFAGGALSGTPTKAGSYSFAIQATDANLSTRVQEYTMNVDALPPLALKPTLPPGEIRGETRIPVTIQAPRAVRAARLSWDLGKDVQVTRVQPADAGSVVFWQQRGSVLTVDLGFRTVPRPDARIALITVKPAKAVTLKADALGYEARDGSGKMLVDKKRPGSEPVKPAEQPGDPKVDPKAADQKATDQKATDPKTVDPKTVTPADTVEGGPLPSPALPTPSLPPTLPPVTTPPANTPPVPTPTPPANQPAPAPAPQPAPAPQPTPPSGTGGALEHHHHHH”, the protein production result was “not failed”.

Consider “MSQQSSSPTKEDNNSSSPVVPNPDSVPPQLSSPALFYSSSSSQGDIYGRNNSQNLSQGEGNIRAAIGSSPLNFPSSSQRQNSDVFQSQGRQGRIRSSASASGRSRYHSDLRSDRALPTSSSSLGRNGQNRVHMRRNDIHTSDLSSPRRIVDFDTRSGVNTLDTSSSSAPPSEASEPLRIIWGTNVSIQECTTNFRNFLMSFKYKFRKILDEREEFINNTTDEELYYIKQLNEMRELGTSNLNLDARNLLAYKQTEDLYHQLLNYPQEVISIMDQTIKDCMVSLIVDNNLDYDLDEIETKFYKVRPYNVGSCKGMRELNPNDIDKLINLKGLVLRSTPVIPDMKVAFFKCNVCDHTMAVEIDRGVIQEPARCERIDCNEPNSMSLIHNRCSFADKQVIKLQETPDFVPDGQTPHSISLCVYDELVDSCRAGDRIEVTGTFRSIPIRANSRQRVLKSLYKTYVDVVHVKKVSDKRLDVDTSTIEQELMQNKVDHNEVEEVRQITDQDLAKIREVAAREDLYSLLARSIAPSIYELEDVKKGILLQLFGGTNKTFTKGGRYRGDINILLCGDPSTSKSQILQYVHKITPRGVYTSGKGSSAVGLTAYITRDVDTKQLVLESGALVLSDGGVCCIDEFDKMSDSTRSVLHEVMEQQTISIAKAGIITTLNARSSILASANPIGSRYNPNLPVTENIDLPPPLLSRFDLVYLVLDKVDEKNDRELAKHLTNLYLEDKPEHISQDDVLPVEFLTMYISYAKEHIHPIITEAAKTELVRAYVGMRKMGDDSRSDEKRITATTRQLESMIRLAEAHAKMKLKNVVELEDVQEAVRLIRSAIKDYATDPKTGKIDMNLVQTGKSVIQRKLQEDLSREIMNVLKDQASDSMSFNELIKQINEHSQDRVESSDIQEALSRLQQEDKVIVLGEGVRRSVRLNNRV”, for which the protein production result was “failed”.

As to “MSQSKEDKIRSILEAKNIKSNFQNKENLSEFNEKKASKRAEDLLDVYYNTLSTADMEFPYWYNREYRKSDGDIPVVRRAKALKAAFSHMTPNIIPGEKIVMQKTRHYRGSFPMPWVSESFFVAQGEQMREEAKKLASNTADELTKFGSGGGNVTESFGNVVSIAGKFGMRKEEVPVLVKMAKEWVGKSVEDLGFHYEKMMPDYDLKENLMSTLICMFDSGYTLPQGREVINYFYPLNYGLDGIIEMAKECKKAVAGNASGDGLIGMDRLYFYEAVIQVIEGLQTWILNYAKHAKYLESIETDLEAKKEYSDLVEILEHIAHKQPRTFREALQLTYTIHIASVNEDAISGMSIGRFGQILYPWYEQDIEKGLITKEEVIELLELYRIKITCIDCFASAGVNGGVLSGNTFNTLSIGGLKEDGSTGANELEELLLEASMRCRTPQPSLTMLYDEKLPEDFLMKAAECTKLGSGYPAWVNNSNGTTFMMKQFADEGMTVEEARAFALGGCLETSPGCWKQLTLNGKTYSIAGGAGQSAGSGVHFIANPKILELVLMNGKDYRMNIQVFEPHNKPLDTYEEVIEVFKDYYKQAINVLERANNIELDIWRKFDTSIINSLLKPDCLDKGQHIGNMGYRYNATLNVETCGTVTMVNSFAALKKLVYDDKAFTIEEMKDAILNNFGFKDALEVGNYSMADQVKVDKTGKYDAIYKACLDAPKYGNNDLYADNILKNYEVWLSKVCEEAQSLYAKKMYPCQISVSTHGPQGAATLATPDGRLSGTTYSDGSVSAYAGTDKNGVYALFESATIWDQAVVQNSQMNLKLHPTTIKGQQGTKKLLDLTRSYLRKGGFHIQYNVVDSETLKDAQKNPDNYRQLMVRVAGFTQYWCELGKPIQDEVIARTEYEGV”, the protein production result is “failed”.

Turning to “MSQSMYSYPAMTANVGDMAGYTGTTQSLGADIASERTAPSRACQGDLGMSHQDWQAQWNQAMEALARAYRRCRRALRQIGVLERPVGDSSDCGTIRVGSFRGRWLDPRHAGPATAADAGD”, the protein production entry is “failed”.

As to “MSQSNHPGGKDAGSIPRVLISADRSSSGKTTISMGLMAALVSRGYKVQPFKVALDYIDPSYHTEITGRFCRNLDGYLMDEHGILDVYTHACETGGGADIAIIEGVRGLFEGFESLSDVGSTAQIAKILKCPVVFVINARSITRSAAALIGGYKNFDPDVEIAGVILNNIGGRRHAQKAKEAIEHYTGVPVLGIIPRDPSMQISMRHLGLMPALEGRRRFGDGGFENRLHGIEEIINKGIDVDRFLGIAESAKPLTALENSIFSPAVNENSQKPKIGVALDEAFNFYYRDNIDLLEIAGAEIVYFSPVNDPGLPEVDGLYIGGGYPELFAAELEANETMRKSIKEASAAGMPIYAECGGLMYLTEKISTGVPGKGTYHDASMPESTYSMVGALPGHTIMGQTRVVSYNIGTLARDCPIGKKGNSFKGHEFHHSEILEIPDDAEFAIALTRGTGIRGDRDGLIVNNTIGSYAHLHGVAYRELAGSLVEAARKFRDSRVSSLEHHHHHH”, the protein production entry is reported as “not failed”.

With “MSQSPSPPDSPSASPDSPSASPMHAFLLCAGFGTRMRPVTAETPKSLVTVAGRPLLDHLLDELTAWSALTEIHVAVNHEDAPAFREWAAGHRADLETQGIGLHLHDDGVEAPDDQLGCVGDLRFLLDAVGLPADGALVSGGDSLYRFPLAPLLNAYDGTTNRVLALHEPDPERRAQSSVLQLDGPTVTAVHDDPTGTASTRICPSWLLLSAEGLGAIVPYLDDGGPPDTLGAFLDRLARTHSVQAHRLPQTGHLRLHCNTPDDLEHARKLLRKGPRHVLGPAPVRASLPEPAS”, the protein production entry is on record as “failed”.

On to “MSQSSSPQQIPVVVLAGFLGSGKTTLLNHLLHRSGGSRIGAIVNDFGAIEIDAMAVAGALGDSTVSLGNGCLCCAVDAGELDLYLERLAHPSARVDVIVIEASGLAEPQELVRMVLASENARVVYGGLVEVVDAAEFDATRAKHPEVDRHLAMADLVVVNKIDRADDGERVLRAVRSLTDRAAVVPATYGRVDPELLFDCRPTGERIGQLSFDDLHEHRGEEDHHGHLHAAYDSVSFTSEAPMNPRRMMDFLDSRPEGLYRIKGYVDFGTADPRNRYAVHAVGRFLRFYPEPWAPAGPRLTQLVLIGSGIDTAALHKELDACTNDAPHADEHSMWGVLRYVQEQEQEQEQRQETAEAEQAG”, for which the protein production entry is given as “failed”.

“MSQVHRILNCRGTRIHAVADSPPDQQGPLVVLLHGFPESWYSWRHQIPALAGAGYRVVAIDQRGYGRSSKYRVQKAYRIKELVGDVVGVLDSYGAEQAFVVGHDWGAPVAWTFAWLHPDRCAGVVGISVPFAGRGVIGLPGSPFGERRPSDYHLELAGPGRVWYQDYFAVQDGIITEIEEDLRGWLLGLTYTVSGEGMMAATKAAVDAGVDLESMDPIDVIRAGPLCMAEGARLKDAFVYPETMPAWFTEADLDFYTGEFERSGFGGPLSFYHNIDNDWHDLADQQGKPLTPPALFIGGQYDVGTIWGAQAIERAHEVMPNYRGTHMIADVGHWIQQEAPEETNRLLLDFLGGLRP”: the protein production result is given as “not failed”.

As to “MSQVRQVGLLAAGCQPWNKDVCAANGDRFAYCATLAIYIYQLDHRYNEFRLHAIMAEHKKTITAISWCPHNPDLFASGSTDNLVIIWNVAEQNVIAKLDNIKETPACLSWCWNTGDAVAFVSQKGPLLIWTISGPDSGVSVHKEAHGFVSDICIFRWHTQKKGKVAFGHTDGSISIFQPDEDDPVTALEWDPLSTDYLLVANLHYGIRLLDSESLYCITTFSFPSAAVSVQCLAWVPSAPGMFITGDSQVGVLRIWNVSRTTPIDSFKLKKAGFHCLHVVNSPPKRKFSVQSSNKNHYMSSTSEAVPPPSLTRNQAFSLPPGHVVCCFLDGGVGLYDMGAKKWDFLRELGHVETIFDCKFKPDDPNLLATASFDGTIKVWDINTLTAVYTSPGNEGVIFALSWAPGDLNCIAGATSRNGAFIWDIQKGKMIQRFNEHGKNGIFYIAWSHKDSKRIATCSGDGFCIIRTLDGKLLHKYKHPAAVFGCDWSQNNKDMIATGCEDKHVRVFYVASSSNQPLKVFSGHTARVFHVKWSPLREGVLCSGSDDGSVRIWDYTQDACISILNGHTAPVRGLMWNTEIPYLLISGSWDYTIKVWDTRGGVCLDTVYDHGADVYGLTCHPSRPFTMASCSRDSTVRLWSLIPLITPLQINILADRPWEEIIGNTDNAIEQASPPLLCGKASKDIKQEVEKLTCNPRVKKLRLFSECLSSPGGSDNLWNLVAVIKGQDDSLLPQNYYKGMMHLKHLIKFRTSEAQELTTIKMSKFGGGIGAPTKENKLKEAAEIHLRLGQIQRYCELMVELGEVA”, the protein production entry is “failed”.

Take “MSRAALGIRSSWVGFVAAATTAMASTIAPVAYAQVAHHVPNDGCSAVEVAVVGGTTQANIHDDPHDVYSFGKGTNFAVNMTRRFHNVTAWQLPYYSSAGITASNNDAEQKEFPPYAVSKNRGVDVLDAHLSDQAVKCPDTQFVIAGFSQGADIAGDMAERISRGKTNPALTPERVLGVYLLADPGRSDLPMNPTQGQTTTGKSGPLTDNGAVLIETNLGLPGAGSVGIAGPRAAGAFSNLPGKVRSICSSGDPACAVHPKGLLASVGKWANDQNDFEHVPVESVRTMMLNGSFFISLAPHMNKIRGDLYASDPVALKQHFDDASMHPRLTQPERNTLHLVGAEIAGLMGHLKQGRDQVAVGSSDTGLSSGGPRDRLIALEKIVQQQTGLVELQLAVGLMIVHLSYTGDSREVSTVGAQRADDWIDSDMTQLISGYLNTLSVRAPYVTLGERHTFIQKMGWPIWWIVSSIWGQRNHAARGVWEFFGL”: the protein production entry is reported as “failed”.

With “MSRDGGDVIETAVKSLGKGFDLTADFRLKYCKDGDGSAGDDRLVVLDQTQNRELHIPGFGVFQNVSADINCDKGERTRFRSDILDFNKMSEYFNQRSSVTGKIPSGNFNATFGFQSGSWATDAANVKSLGLDASVVTLFNLHIHNPNRLRLTDRVRNAVPSSWDPQLLARFIERYGTHVITGVSVGGQDVVVVRQDKSSDLDNDLLRHHLYDLGDQLFTGSCLLSTRRLNKAYHHSHSQPKFPEAFNVFDDKQTVAFNNFSINSQNGITVICAKRGGDGRAKSHSEWLITVPDKPDAINFNFIPITSLLKDVPGSGLLSHAMSLYLRYKPPLMDLQYFLDFSGPRAWAPVHNDLPFGAAPNMASAYPALHINFMGPKLYVNTTPVTSEKNPVTGMRFFLEGKKCNRLAIHLQHLDNTRTTVGEKITDEHIWRGSDQITDNDRYFEPLNGKKFSHVCTVPVKYDPNWIKTTSNHKSQNDVAFIVTGAQLEVKKHGSKSVLHLRLRYTKVSDHYVVQNSWVHGPIGTSQKSGIFSSMSMPLTSGSVHHNMIQKDKNEVVLDSGVFPGGPPVPANNKIVKFVDLSQLCRGPQHSPGHWLVTGVRLYLDKGKLCLHVKFALLHRQRLLVSS”, the protein production result was “failed”.
